Our source for the Ka values is PMC12572689, “Characterization of the Specific Binding Between Aptamers and Cytochrome c With Pressure‐Assisted Capillary Electrophoresis Frontal Analysis”.

In data set [1] the target is T1, cytochrome c (Equus caballus (equine heart), UniProt P00004 2-105). In words: PACE-FA; specific binding fit; n=1.25; lambda 6.90e4 M-1; 10 mM NH4OAc pH 6.8 (fluorescence: 2.0 uM cyt c, 2.0-14.0 uM aptamer, 30 min); PACE-FA: NH4OAc pH 6.8, HPC-coated capillary; temperature not stated. The following applies: protein: commercial; tags: none; multi-loop structure (as claimed in text).
T1 sequence (P00004 2-105): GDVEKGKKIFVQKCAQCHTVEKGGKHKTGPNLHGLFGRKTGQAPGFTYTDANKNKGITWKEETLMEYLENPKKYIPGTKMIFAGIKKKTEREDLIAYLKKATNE

The target in data set [2] is T1, cytochrome c. In words: PACE-FA; raw data, uncorrected; n=2.05; 10 mM NH4OAc pH 6.8 (fluorescence: 2.0 uM cyt c, 2.0-14.0 uM aptamer, 30 min); PACE-FA: NH4OAc pH 6.8, HPC-coated capillary; temperature not stated. The conditions noted are these: protein: commercial; tags: none; multi-loop structure (as claimed in text).
The target of data set [3] is T1, cytochrome c. The experiment in a line: fluorescence titration; cyt c emission at 292 nm; Benesi-Hildebrand; 10 mM NH4OAc pH 6.8 (fluorescence: 2.0 uM cyt c, 2.0-14.0 uM aptamer, 30 min); PACE-FA: NH4OAc pH 6.8, HPC-coated capillary; temperature not stated. The conditions noted are these: protein: commercial, tags: none.
The target in data set [4] is T1, cytochrome c. In words: PACE-FA; mobility correction; n=1.85; 10 mM NH4OAc pH 6.8 (fluorescence: 2.0 uM cyt c, 2.0-14.0 uM aptamer, 30 min); PACE-FA: NH4OAc pH 6.8, HPC-coated capillary; temperature not stated. The conditions noted are these: protein: commercial; tags: none; multi-loop structure (as claimed in text).
In data set [5] the target is T1, cytochrome c. In words: PACE-FA; raw data, uncorrected; n=1.47; 10 mM NH4OAc pH 6.8 (fluorescence: 2.0 uM cyt c, 2.0-14.0 uM aptamer, 30 min); PACE-FA: NH4OAc pH 6.8, HPC-coated capillary; temperature not stated. The conditions noted are these: protein: commercial; tags: none.
The target of data set [6] is T1, cytochrome c. In words: PACE-FA; mobility correction; n=1.30; 10 mM NH4OAc pH 6.8 (fluorescence: 2.0 uM cyt c, 2.0-14.0 uM aptamer, 30 min); PACE-FA: NH4OAc pH 6.8, HPC-coated capillary; temperature not stated. The following applies: protein: commercial; tags: none.
The target of data set [7] is T1, cytochrome c. The experiment in a line: PACE-FA; specific binding fit; n=1.22; lambda 7.11e3 M-1; 10 mM NH4OAc pH 6.8 (fluorescence: 2.0 uM cyt c, 2.0-14.0 uM aptamer, 30 min); PACE-FA: NH4OAc pH 6.8, HPC-coated capillary; temperature not stated. The following applies: protein: commercial; tags: none.
The target in data set [8] is T1, cytochrome c. In words: PACE-FA; mobility correction; n=1.10; 10 mM NH4OAc pH 6.8 (fluorescence: 2.0 uM cyt c, 2.0-14.0 uM aptamer, 30 min); PACE-FA: NH4OAc pH 6.8, HPC-coated capillary; temperature not stated. The following applies: protein: commercial; tags: none.
The target in data set [9] is T1, cytochrome c. In words: PACE-FA; raw data, uncorrected; n=1.06; 10 mM NH4OAc pH 6.8 (fluorescence: 2.0 uM cyt c, 2.0-14.0 uM aptamer, 30 min); PACE-FA: NH4OAc pH 6.8, HPC-coated capillary; temperature not stated. The conditions noted are these: protein: commercial; tags: none.
Data set [10] concerns the target T1, cytochrome c. The experiment in a line: PACE-FA; specific binding fit; n=0.84; lambda 2.83e4 M-1; 10 mM NH4OAc pH 6.8 (fluorescence: 2.0 uM cyt c, 2.0-14.0 uM aptamer, 30 min); PACE-FA: NH4OAc pH 6.8, HPC-coated capillary; temperature not stated. The following applies: protein: commercial; tags: none.

B1: Apt76 (ssDNA)
DNA: ATCGATAAGCTTCCAGAGCCGTGTCTGGGGCCGACCGGCGCATTGGGTACGTTGTTGCCGTAGAATTCCTGCAGCC
Consider B1, for which the Ka in data set [1] worked out at 1.53e+06 M⁻¹; in data set [2], 1.65e+06 M⁻¹; in data set [3] (multi-loop structure (as claimed in text)), 868000 M⁻¹; in [4], 676000 M⁻¹.

B2: Apt61 (ssDNA)
DNA: AGTGTGAAATATCTAAACTAAATGTGGAGGGTGGGACGGGAAGAAGTTTATTTTTCACACT
For the molecule B2, the Ka in [5] is 1.06e+06 M⁻¹; in data set [6], 643000 M⁻¹; in data set [3] it was 625000 M⁻¹; in data set [7], 712000 M⁻¹.

On to CCGTGTCTGGGGCCGACCGGCGCATTGGGTACGTTGTTGC (ssDNA) [Apt40], for which the Ka in data set [8] is 545000 M⁻¹; in [9] it was 2.01e+06 M⁻¹; in data set [3], 151000 M⁻¹; in data set [10], 840000 M⁻¹.
